Experimental data from the supplement of paper PMC10598134.
± gives the standard deviation.

Test: collision cross section of modified peptide (TIMS, N2, iRT-aligned); higher = larger / more extended gas-phase ion
Procedure, shortened: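 On a timsTOF Pro/HT (dda-PASEF, nitrogen, ~2.4 mbar), synthetic peptide pools were analysed after a 120-min nanoflow C18 separation at 60 °C and identified in MaxQuant. Three reference ions served for 1/K0 calibration, with run-wise alignment to the median iRT peptide deviation. Collision cross section comes from the Mason-Schamp equation, using the most abundant feature per charge state averaged over 1–3 technical replicates.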

[1] = charge state: 2, modification: Dimethyl (K)
[2] = charge state: 3, modification: Dimethyl (K)
[3] = charge state: 2, modification: Nitro (Y)
[4] = charge state: 2, modification: Acetyl (K)
[5] = charge state: 3, modification: Acetyl (K)
[6] = charge state: 2, modification: Methyl (K)
[7] = charge state: 3, modification: Methyl (K)
[8] = charge state: 2, modification: GlyGly (K)
[9] = charge state: 3, modification: GlyGly (K)
[10] = charge state: 2, modification: Glutarylation
[11] = charge state: 2, modification: hydroxyisobutyryl
[12] = charge state: 3, modification: hydroxyisobutyryl

## TQDQISNIKYHEEFEK [_TQDQISNIK(Trimethyl (K))YHEEFEK_]
Charge state: 3, modification: Trimethyl (K)
  collision cross section: 544.72 ± 0.9 Å²

## GLPGEPGPRGLLGPK [_GLPGEP(Hydroxyproline)GPRGLLGPK_]
Charge state: 2, modification: Hydroxyproline
  collision cross section: 409.23 ± 0.28 Å²

## VDVEVPDVSLEGPEGKLK [_VDVEVPDVSLEGPEGK(Dimethyl (K))LK_]
[1]
  collision cross section: 459.72 ± 1.8 Å²
[2]
  collision cross section: 548.43 ± 0.78 Å²

## SYHLQIVTK [_SY(Nitro (Y))HLQIVTK_]
[3]
  collision cross section: 345.14 ± 0.74 Å²
Charge state: 3, modification: Nitro (Y)
  collision cross section: 449.3 ± 1.2 Å²

## LGNDFHTNKR [_LGNDFHTNK(Acetyl (K))R_]
[4]
  collision cross section: 373.86 ± 3.5 Å²
[5]
  collision cross section: 444.24 ± 4 Å²

## LDHLAEKFR [_LDHLAEK(Propionyl)FR_]
Charge state: 3, modification: Propionyl
  collision cross section: 442.11 ± 0.59 Å²

## FLQEFYQDDELGK [_FLQEFY(Nitro (Y))QDDELGK_]
[3]
  collision cross section: 428.07 ± 1.5 Å²

## DSRGGGGNFGPGPGSNFR [_DSR(Methyl (R))GGGGNFGPGPGSNFR_]
Charge state: 3, modification: Methyl (R)
  collision cross section: 480.39 ± 3.1 Å²

## SSDLTDRVK [_S(HexNAc (ST))SDLTDRVK_]
Charge state: 2, modification: HexNAc (ST)
  collision cross section: 362.74 ± 0.12 Å²
Charge state: 3, modification: HexNAc (ST)
  collision cross section: 449.63 ± 1.1 Å²

## TVSKVDDFLANEAK [_TVSK(Methyl (K))VDDFLANEAK_]
[6]
  collision cross section: 413.26 ± 1.6 Å²
[7]
  collision cross section: 471.08 ± 3.6 Å²

## VFIGNLNTLVVKK [_VFIGNLNTLVVK(Acetyl (K))K_]
[4]
  collision cross section: 409.46 ± 1.7 Å²
[5]
  collision cross section: 485 Å²

## VFIGNLNTLVVKKK [_VFIGNLNTLVVK(Succinyl)KK_]
Charge state: 3, modification: Succinyl
  collision cross section: 514.83 ± 3.9 Å²

## DTGEKLTVAENEAETK [_DTGEK(Dimethyl (K))LTVAENEAETK_]
[1]
  collision cross section: 442.93 ± 0.72 Å²
[2]
  collision cross section: 481.58 ± 2.1 Å²

## VGTASVLQPVKK [_VGTASVLQPVK(Dimethyl (K))K_]
[1]
  collision cross section: 391.72 ± 3 Å²
[2]
  collision cross section: 440.56 ± 1.6 Å²

## LQEKVESAQSEQK [_LQEK(GlyGly (K))VESAQSEQK_]
[8]
  collision cross section: 427.55 ± 1.4 Å²
[9]
  collision cross section: 508.34 ± 0.87 Å²

## LEQVEKELLR [_LEQVEK(GlyGly (K))ELLR_]
[8]
  collision cross section: 394.68 ± 0.37 Å²
[9]
  collision cross section: 460.7 ± 1.1 Å²

## SNEEGSEEKGPEVR [_SNEEGSEEK(GlyGly (K))GPEVR_]
[8]
  collision cross section: 409.13 ± 2.5 Å²
[9]
  collision cross section: 474.76 ± 1.1 Å²

## LGSPSGKTGTCR [_LGSPSGK(Succinyl)TGTCR_]
Charge state: 2, modification: Succinyl
  collision cross section: 368.12 ± 0.52 Å²

## TPNLYIYSKK [_TPNLYIYSK(Butyryl)K_]
Charge state: 2, modification: Butyryl
  collision cross section: 388.09 ± 0.85 Å²
Charge state: 3, modification: Butyryl
  collision cross section: 439.93 Å²

## VLTANSNPSSPSAAKR [_VLTANSNPSSPSAAK(Gluratylation)R_]
[10]
  collision cross section: 432.88 ± 2 Å²
Charge state: 3, modification: Glutarylation
  collision cross section: 532.45 ± 0.12 Å²

## GAEKTEVAEPR [_GAEK(hydroxyisobutyryl)TEVAEPR_]
[11]
  collision cross section: 376.1 ± 9 Å²

## VTLEVGKVIQQGR [_VTLEVGK(GlyGly (K))VIQQGR_]
[8]
  collision cross section: 431.32 ± 0.96 Å²
[9]
  collision cross section: 486.06 ± 1.6 Å²

## TTEETSKPK [_TTEETSK(GlyGly (K))PK_]
[8]
  collision cross section: 355.85 ± 0.24 Å²
[9]
  collision cross section: 431.05 ± 2.7 Å²

## DYSAPVNFISAGLKK [_DYSAPVNFISAGLK(hydroxyisobutyryl)K_]
[11]
  collision cross section: 443.11 ± 0.56 Å²
[12]
  collision cross section: 536.52 ± 2.1 Å²

## DVNAAIAAIKTK [_DVNAAIAAIK(Acetyl (K))TK_]
[4]
  collision cross section: 390.07 ± 14 Å²
[5]
  collision cross section: 457.21 Å²

## ATVASSTQKFQDLGVK [_ATVASSTQK(hydroxyisobutyryl)FQDLGVK_]
[11]
  collision cross section: 453.68 ± 1.4 Å²
[12]
  collision cross section: 498.28 ± 1.6 Å²

## DFDTALKHYDK [_DFDTALK(Methyl (K))HYDK_]
[6]
  collision cross section: 393.99 Å²
[7]
  collision cross section: 458.02 ± 4 Å²

## LDEKENLSAK [_LDEK(Gluratylation)ENLSAK_]
[10]
  collision cross section: 373.82 ± 0.62 Å²

## GTISAPGKVVTAAAQAK [_GTISAPGK(GlyGly (K))VVTAAAQAK_]
[8]
  collision cross section: 456.01 ± 1.6 Å²
[9]
  collision cross section: 541.49 ± 0.36 Å²

## VTLEVGKVIQQGR [_VTLEVGK(Biotin)VIQQGR_]
Charge state: 2, modification: Biotin
  collision cross section: 422.26 Å²
Charge state: 3, modification: Biotin
  collision cross section: 501.27 Å²
